# Article PMC4022651, “Substitutional Analysis of the C-Terminal Domain of AbrB Revealed Its Essential Role in DNA-Binding Activity”
# Legend:
# [1] = biological target: AbrB D62A (B. subtilis); test: SEC; analytical gel filtration (FPLC) on Superdex 75 5/150 GL; running buffer condition I: 50 mM HEPES pH 7.5, 300 mM NaCl, 2 mM β-mercaptoethanol, no glycerol; 100 µl protein applied; 0.2 ml/min; polymeric forms as % of the areas under the curve of all protein peaks
# [2] = biological target: AbrB E77A (B. subtilis); test: SEC; analytical gel filtration (FPLC) on Superdex 75 5/150 GL; running buffer condition II: 50 mM HEPES pH 7.5, 300 mM NaCl, 2 mM β-mercaptoethanol with 10% glycerol; 60 µl (100 µg) protein applied; 0.2 ml/min; polymeric forms as % of the areas under the curve of all protein peaks
# [3] = biological target: AbrB E77A (B. subtilis); test: SEC; analytical gel filtration (FPLC) on Superdex 75 5/150 GL; running buffer condition I: 50 mM HEPES pH 7.5, 300 mM NaCl, 2 mM β-mercaptoethanol, no glycerol; 100 µl protein applied; 0.2 ml/min; polymeric forms as % of the areas under the curve of all protein peaks
# [4] = biological target: AbrB E80A (B. subtilis); test: SEC; analytical gel filtration (FPLC) on Superdex 75 5/150 GL; running buffer condition II: 50 mM HEPES pH 7.5, 300 mM NaCl, 2 mM β-mercaptoethanol with 10% glycerol; 60 µl (100 µg) protein applied; 0.2 ml/min; polymeric forms as % of the areas under the curve of all protein peaks
# [5] = biological target: AbrB E80A (B. subtilis); test: SEC; analytical gel filtration (FPLC) on Superdex 75 5/150 GL; running buffer condition I: 50 mM HEPES pH 7.5, 300 mM NaCl, 2 mM β-mercaptoethanol, no glycerol; 100 µl protein applied; 0.2 ml/min; polymeric forms as % of the areas under the curve of all protein peaks
# [6] = biological target: AbrB E85A (B. subtilis); test: as above
# [7] = biological target: AbrB K71A (B. subtilis); test: SEC; analytical gel filtration (FPLC) on Superdex 75 5/150 GL; running buffer condition II: 50 mM HEPES pH 7.5, 300 mM NaCl, 2 mM β-mercaptoethanol with 10% glycerol; 60 µl (100 µg) protein applied; 0.2 ml/min; polymeric forms as % of the areas under the curve of all protein peaks
# [8] = biological target: AbrB K71A (B. subtilis); test: SEC; analytical gel filtration (FPLC) on Superdex 75 5/150 GL; running buffer condition I: 50 mM HEPES pH 7.5, 300 mM NaCl, 2 mM β-mercaptoethanol, no glycerol; 100 µl protein applied; 0.2 ml/min; polymeric forms as % of the areas under the curve of all protein peaks
# [9] = biological target: AbrB K76A (B. subtilis); test: as above
# [10] = biological target: AbrB K94A (B. subtilis); test: as above
# [11] = biological target: AbrB K94I (B. subtilis); test: SEC; analytical gel filtration (FPLC) on Superdex 75 5/150 GL; running buffer condition II: 50 mM HEPES pH 7.5, 300 mM NaCl, 2 mM β-mercaptoethanol with 10% glycerol; 60 µl (100 µg) protein applied; 0.2 ml/min; polymeric forms as % of the areas under the curve of all protein peaks
# [12] = biological target: AbrB K94I (B. subtilis); test: SEC; analytical gel filtration (FPLC) on Superdex 75 5/150 GL; running buffer condition I: 50 mM HEPES pH 7.5, 300 mM NaCl, 2 mM β-mercaptoethanol, no glycerol; 100 µl protein applied; 0.2 ml/min; polymeric forms as % of the areas under the curve of all protein peaks
# [13] = biological target: AbrB N88A (B. subtilis); test: as above
# [14] = biological target: AbrB N88D (B. subtilis); test: as above
# [15] = biological target: AbrB Q55A (B. subtilis); test: as above
# [16] = biological target: AbrB Q55E (B. subtilis); test: SEC; analytical gel filtration (FPLC) on Superdex 75 5/150 GL; running buffer condition II: 50 mM HEPES pH 7.5, 300 mM NaCl, 2 mM β-mercaptoethanol with 10% glycerol; 60 µl (100 µg) protein applied; 0.2 ml/min; polymeric forms as % of the areas under the curve of all protein peaks
# [17] = biological target: AbrB Q55E (B. subtilis); test: SEC; analytical gel filtration (FPLC) on Superdex 75 5/150 GL; running buffer condition I: 50 mM HEPES pH 7.5, 300 mM NaCl, 2 mM β-mercaptoethanol, no glycerol; 100 µl protein applied; 0.2 ml/min; polymeric forms as % of the areas under the curve of all protein peaks
# [18] = biological target: AbrB Q81A (B. subtilis); test: as above
# [19] = biological target: AbrB Q87A (B. subtilis); test: as above
# [20] = biological target: AbrB Q89A (B. subtilis); test: as above
# [21] = biological target: AbrBQ81E (B. subtilis); test: SEC; analytical gel filtration (FPLC) on Superdex 75 5/150 GL; running buffer condition II: 50 mM HEPES pH 7.5, 300 mM NaCl, 2 mM β-mercaptoethanol with 10% glycerol; 60 µl (100 µg) protein applied; 0.2 ml/min; polymeric forms as % of the areas under the curve of all protein peaks
# [22] = biological target: AbrBQ81E (B. subtilis); test: SEC; analytical gel filtration (FPLC) on Superdex 75 5/150 GL; running buffer condition I: 50 mM HEPES pH 7.5, 300 mM NaCl, 2 mM β-mercaptoethanol, no glycerol; 100 µl protein applied; 0.2 ml/min; polymeric forms as % of the areas under the curve of all protein peaks
# [23] = biological target: AbrBQ81K, identical with the AbrB of B. amyloliquefaciens FZB45 (B. subtilis (with Q81K: B. amyloliquefaciens FZB45)); test: as above
# [24] = biological target: AbrBR15A (B. subtilis); test: SEC; analytical gel filtration (FPLC) on Superdex 75 5/150 GL; running buffer condition II: 50 mM HEPES pH 7.5, 300 mM NaCl, 2 mM β-mercaptoethanol with 10% glycerol; 60 µl (100 µg) protein applied; 0.2 ml/min; polymeric forms as % of the areas under the curve of all protein peaks
# [25] = biological target: AbrBR15A (B. subtilis); test: SEC; analytical gel filtration (FPLC) on Superdex 75 5/150 GL; running buffer condition I: 50 mM HEPES pH 7.5, 300 mM NaCl, 2 mM β-mercaptoethanol, no glycerol; 100 µl protein applied; 0.2 ml/min; polymeric forms as % of the areas under the curve of all protein peaks
# [26] = biological target: wild-type AbrB of B. subtilis 168 (His6-AbrB) (B. subtilis); test: SEC; analytical gel filtration (FPLC) on Superdex 75 5/150 GL; running buffer condition II: 50 mM HEPES pH 7.5, 300 mM NaCl, 2 mM β-mercaptoethanol with 10% glycerol; 60 µl (100 µg) protein applied; 0.2 ml/min; polymeric forms as % of the areas under the curve of all protein peaks
# [27] = biological target: wild-type AbrB of B. subtilis 168 (His6-AbrB) (B. subtilis); test: SEC; analytical gel filtration (FPLC) on Superdex 75 5/150 GL; running buffer condition I: 50 mM HEPES pH 7.5, 300 mM NaCl, 2 mM β-mercaptoethanol, no glycerol; 100 µl protein applied; 0.2 ml/min; polymeric forms as % of the areas under the curve of all protein peaks
substance,measurement,setting,value
AbrB D62A (natural protein),% of the protein (AUC) in the form with n 4.1,[1],94%
same,% of the protein (AUC) in the form with n 8.2,[1],6%
AbrB E77A (natural protein),% of the protein (AUC) in the form with n 4.7,[2],94%
same,% of the protein (AUC) in the form with n 55.5,[2],6%
same,% of the protein (AUC) in the form with n 4.1,[3],83%
same,% of the protein (AUC) in the form with n 8.2,[3],17%
AbrB E80A (natural protein),% of the protein (AUC) in the form with n 4.5,[4],90%
same,% of the protein (AUC) in the form with n 56.3,[4],10%
same,% of the protein (AUC) in the form with n 3.9,[5],78%
same,% of the protein (AUC) in the form with n 8.2,[5],22%
AbrB E85A (natural protein),% of the protein (AUC) in the form with n 4.0,[6],98%
same,% of the protein (AUC) in the form with n 8.2,[6],2%
AbrB K71A (natural protein),% of the protein (AUC) in the form with n 3.9,[7],> 95%
same,stoichiometry N,[7],3.9
same,% of the protein (AUC) in the form with n 4.3,[8],86%
same,% of the protein (AUC) in the form with n 8.5,[8],14%
AbrB K76A (natural protein),% of the protein (AUC) in the form with n 4.0,[9],> 95%
same,stoichiometry N,[9],4
AbrB K94A (natural protein),% of the protein (AUC) in the form with n 4.1,[10],93%
same,% of the protein (AUC) in the form with n 8.2,[10],7%
AbrB K94I (natural protein),% of the protein (AUC) in the form with n 4.1,[11],> 95%
same,stoichiometry N,[11],4.1
same,% of the protein (AUC) in the form with n 4.7,[12],65.6%
same,% of the protein (AUC) in the form with n 13.6,[12],34.4%
same,% of the protein in larger polymeric forms,[12],< 30%
AbrB N88A (natural protein),% of the protein (AUC) in the form with n 4.5,[13],91%
same,% of the protein (AUC) in the form with n 8.1,[13],9%
AbrB N88D (natural protein),% of the protein (AUC) in the form with n 4.1,[14],93%
same,% of the protein (AUC) in the form with n 8.3,[14],8%
AbrB Q55A (natural protein),% of the protein (AUC) in the form with n 3.9,[15],92%
same,% of the protein (AUC) in the form with n 8.1,[15],8%
AbrB Q55E (natural protein),% of the protein (AUC) in the form with n 3.8,[16],> 95%
same,stoichiometry N,[16],3.8
same,% of the protein (AUC) in the form with n 4.3,[17],49%
same,% of the protein (AUC) in the form with n 12.3,[17],51%
AbrB Q81A (natural protein),% of the protein (AUC) in the form with n 4.4,[18],94%
same,% of the protein (AUC) in the form with n 8.5,[18],6%
AbrB Q87A (natural protein),% of the protein (AUC) in the form with n 4.5,[19],93%
same,% of the protein (AUC) in the form with n 8.1,[19],7%
AbrB Q89A (natural protein),% of the protein (AUC) in the form with n 4.8,[20],93%
same,% of the protein (AUC) in the form with n 8.1,[20],7%
AbrBQ81E (natural protein),% of the protein (AUC) in the form with n 4.1,[21],> 95%
same,stoichiometry N,[21],4.1
same,% of the protein (AUC) in the form with n 3.9,[22],78%
same,% of the protein (AUC) in the form with n 8.1,[22],22%
"AbrBQ81K, identical with the AbrB of B. amyloliquefaciens FZB45 (natural protein)",% of the protein (AUC) in the form with n 4.0,[23],> 95%
same,stoichiometry N,[23],4
AbrBR15A (natural protein),% of the protein (AUC) in the form with n 40.4,[24],10%
same,% of the protein (AUC) in the forms with 12< n >1,[24],90%
same,% of the protein (AUC) in the form with n 4.1,[25],57.5%
same,% of the protein (AUC) in the form with n 8.0,[25],42.5%
wild-type AbrB of B. subtilis 168 (His6-AbrB) (natural protein),% of the protein (AUC) in the form with n 4.8,[26],> 95%
same,stoichiometry N,[26],4.8
same,% of the protein (AUC) in the form with n 4.1,[27],87%
same,% of the protein (AUC) in the form with n 8.2,[27],13%
